Reference: patent US7030231 (University of California, dated 2006)
One block for each binder: values may come before it.

Experiments:
[1] = biological target: T1, inactive Ser805Ala His-tagged MT-SP1 protease domain
T1 chain: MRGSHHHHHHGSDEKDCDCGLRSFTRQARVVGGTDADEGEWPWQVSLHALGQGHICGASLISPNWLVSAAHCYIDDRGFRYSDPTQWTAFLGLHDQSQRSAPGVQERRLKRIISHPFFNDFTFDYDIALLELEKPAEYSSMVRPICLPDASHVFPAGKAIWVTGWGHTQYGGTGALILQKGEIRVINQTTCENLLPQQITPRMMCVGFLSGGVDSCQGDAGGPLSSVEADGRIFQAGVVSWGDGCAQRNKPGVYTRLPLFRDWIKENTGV

[2] = biological target: T2, His-tagged MT-SP1 protease domain (refolded, autoactivated, purified on p-aminobenzamidine resin) (human, UniProt Q9Y5Y6 615-855); test: apparent Ki; inhibition of Spectrozyme tPA hydrolysis by 63 pM enzyme, fit to the tight-binding reversible inhibitor equation
T2 construct: The split 596-614 / 615-855 follows from the stated construct limits and the stated cleavage site; also called His-MT-SP1 protease domain; MT-SP1 His-tagged protease domain
T2 sequence 1: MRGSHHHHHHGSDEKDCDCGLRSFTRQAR
T2 sequence 2: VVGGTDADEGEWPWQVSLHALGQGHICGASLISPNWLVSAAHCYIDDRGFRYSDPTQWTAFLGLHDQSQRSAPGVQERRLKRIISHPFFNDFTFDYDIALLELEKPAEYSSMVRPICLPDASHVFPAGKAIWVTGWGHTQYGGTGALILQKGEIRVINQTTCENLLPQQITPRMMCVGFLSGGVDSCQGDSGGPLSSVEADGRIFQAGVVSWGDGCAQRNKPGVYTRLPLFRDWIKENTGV
Protocol: Ecotin and ecotin M84R/M85R were purified from *E. coli* as described in copending application Ser. Nos. 09/290,513 and 09/289,830, both filed on Apr. 12, 1999. Various concentrations of ecotin or ecotin M84R/M85R were incubated with the His-tagged serine protease domain in a total volume of 990 μL of buffer containing 50 mM NaCl, 50 mM Tris-HCl (pH 8.8), 0.01% Tween 20. 10 μL of Spectrozyme tPA was added, yielding a solution containing 100 μM substrate. The final enzyme concentration was 63 pM, and the ecotin and ecotin M84R/M85R concentration ranged from 0.1 nM to 50 nM. The data were fit to the equation derived for kinetics of reversible tight-binding inhibitors (Morrison (1969) *Biochim. Biophys. Acta* 185: 269–286, Williams and Morrison (1979) *Methods. Enzymol.* 63: 437–467), and the values for apparent K_i were determined.
The enzyme concentration was determined using an active site titration with MUGB. The catalytic activity of the protease domain was monitored using pNA substrates. Purified protease domain was tested for hydrolytic activity against tetrapeptide substrates of the form Suc-AAPX-pNA, which contained various amino acids at the P1 position (P1-Ala, Asp, Glu, Phe, Leu, Met, Lys, or Arg). The only substrates with detectable activity were those with P1-Lys or P1-Arg. The serine protease domain with the Ser^805Ala mutation had no detectable activity. […]

B1: His-tagged MT-SP1 protease domain (refolded, autoactivated, purified on p-aminobenzamidine resin) (protein)
chain 1: MRGSHHHHHHGSDEKDCDCGLRSFTRQAR
chain 2: T2 sequence 2
cleavage monitored by SDS-PAGE [1]: This treatment results in the formation of a cleavage product that corresponds to the size of the active protease

Ki [2]: 9.8 pM
B2: ecotin M84R/M85R (other, E. coli (purified from E. coli), UniProt P23827 21-162, looked up)
chain: AESVQPLEKIAPYPQAEKGMKRQVIQLTPQEDESTLKVELLIGQTLEVDCNLHRLGGKLENKTLEGWGYDYYVFDKVSSPVSTRRACPDGKKEKKFVTAYLGDAGMLRYNSKLPIVVYTPDNVDVKYRVWKAEEKIDNAVVR
notes: They probably count on mature ecotin, not on the precursor with its signal peptide
